| Substance | autocleavage in acetate buffer pH 4.5, SDS-PAGE over time |
| --- | --- |
| GST-SASPase C27 mutant E/D (aspartic acid No. 212 substituted to glutamic acid) | The mutated forms (A/D) and (E/D), for their part, do not autoactivate |
| GST-SASPase C27 mutant A/D (aspartic acid No. 212 substituted to alanine) | The mutated forms (A/D) and (E/D), for their part, do not autoactivate |

— US20060240053
